B1: TF-011 (antibody, V domains shown)
VH: EVQLLESGGGLVQPGGSLRLSCAASGFTFSNYAMSWVRQAPGKGLEWVSSISGSGDYTYYTDSVKGRFTISRDNSKNTLYLQMNSLRAEDTAVYYCARSPWGYYLDSWGQGTLVTVSS
VL: DIQMTQSPPSLSASAGDRVTITCRASQGISSRLAWYQQKPEKAPKSLIYAASSLQSGVPSRFSGSGSGTDFTLTISSLQPEDFATYYCQQYNSYPYTFGQGTKLEIK
B2: TF-011 (antibody, V domains shown)
VH: B1 VH
VL: B1 VL
B3: 1F (antibody, human IgG1, V domains shown)
VH: EVQLLESGGGLVQPGGSLRLSCAASGFTFSDYAMGWVRQAPGKGLEWVSTISGSGGLTYYADSVKGRFTISRDNSKNTLYLQMNSLRAEDTAVYYCAKAPYGYYMDVWGKGTTVTVSS
VL: not shown
B4: 1F (antibody, human IgG1, V domains shown)
VH: B3 VH
VL: not shown
B5: 29E (antibody, human IgG1, V domains shown)
VH: QVQLVESGGGVVQPGRSLRLSCAASGFTFRSYGMHWVRQAPGKGLEWVAVITYDGINKYYADSVEGRFTISRDNSKNTLYLQMNSLRAEDTAVYYCARDGVYYGVYDYWGQGTLVTVSS
VL: not shown
B6: 29E (antibody, human IgG1, V domains shown)
VH: B5 VH
VL: not shown
B7: 25A (antibody, human IgG1, V domains shown)
VH: QVQLVQSGAEVKKPGASVKVSCKASGYTFDVYGISWVRQAPGQGLEWMGWIAPYNGNTNYAQKLQGRVTMTTDTSTSTAYMELRSLRSDDTAVYYCARDAGTYSPFGYGMDVWGQGTTVTVSS
VL: DIQMTQSPSTLSASVGDRVTITCRASQSISSWLAWYQQKPGKAPKLLIYKASSLESGVPSRFSGSGSGTEFTLTISSLQPDDFATYYCQQFQSLPPFTFGGGTKVEIK
B8: 5G9 (humanized TF8-5G9, CNTO 860) (antibody, V domains shown)
VH: QVQLVESGGGVVQPGRSLRLSCKASGFNIKDYYMHWVRQAPGKGLEWIGLIDPENGNTIYDPKFQGRFTISADNSKNTLFLQMDSLRPEDTAVYYCARDNSYYFDYWGQGTPVTVSS
VL: DIQMTQSPSSLSASVGDRVTITCKASQDIRKYLNWYQQKPGKAPKLLIYYATSLADGVPSRFSGSGSGTDYTFTISSLQPEDIATYYCLQHGESPYTFGQGTKLEIT
B9: 39A (antibody, human IgG1, V domains shown)
VH: QVQLVQSGAEVKKPGSSVKVSCKASGGTFSSNAIGWVRQAPGQGLEWMGSIIPIIGFANYAQKFQGRVTITADESTSTAYMELSSLRSEDTAVYYCARDSGYYYGASSFGMDVWGQGTTVTVSS
VL: EIVMTQSPATLSVSPGERATLSCRASQSVSSNLAWYQQKPGQAPRLLIYGASTRATGIPARFSGSGSGTEFTLTISSLQSEDFAVYYCEQYNNLPLTFGGGTKVEIK

Tests used:
Relipidated TF = Relipidated TF (UniProt P13726 33-295, limits assumed); assay: cell-based or functional assay
[1] = molecular target: Relipidated TF (Tissue Factor) (UniProt P13726 33-295, limits assumed); assay: cell-based or functional assay

Row | Binder | % Peak IIa, TGA […] min pre-incubation, 50 nM Ab (Relipidated TF) [%] | % ETP, Ab 10 nM [1] [%] | % Peak IIa, Ab 10 nM [1] [%] | % Peak IIa, Ab 50 nM [1] [%] | % ttPeak, Ab 10 nM [1] [%] | % ttPeak, Ab 50 nM [1] [%] | % ttPeak, Ab 100 nM [1] [%] | ETP [nM · min], Ab 10 nM [1] [nM·min] | Lag Time [min], Ab 10 nM [1] [min] | Lag Time [min], Ab 50 nM [1] [min] | Peak IIa [nM], Ab 10 nM [1] [nM] | Peak IIa [nM], Ab 50 nM [1] [nM] | Peak IIa [nM], Ab 100 nM [1] [nM] | ttPeak [min], Ab 10 nM [1] [min] | ttPeak [min], Ab 50 nM [1] [min] | ttPeak [min], Ab 100 nM [1] [min] | % Peak IIa, Ab 100 nM [1] [%] | Lag Time [min], Ab 100 nM [1] [min] | further results
1 | B1 | 10 |  |  |  |  |  |  |  |  |  |  |  |  |  |  |  |  |  | 
2 | B2 |  | 85 | 47 | 12 | 86 | 284 | 353 | 1710 | 8 | 21.3 | 156 | 39 | 30 | 14.7 | 30.3 | 35.8 |  |  | 
3 | B3 | 8 |  |  |  |  |  |  |  |  |  |  |  |  |  |  |  |  |  | % ETP, TGA 10 min pre-incubation, 10 nM Ab (Relipidated TF): 41%; % Peak IIa, TGA […] min pre-incubation, 10 nM Ab (Relipidated TF): 16%; % Peak IIa, TGA […] min pre-incubation, 100 nM Ab (Relipidated TF): 7%; % ttPeak, TGA 10 min pre-incubation, 10 nM Ab (Relipidated TF): 220%; % ttPeak, TGA 10 min pre-incubation, 50 nM Ab (Relipidated TF): 433%; % ttPeak, TGA 10 min pre-incubation, 100 nM Ab (Relipidated TF): 483%; ETP, TGA 10 min pre-incubation, 10 nM Ab (Relipidated TF): 742 nM·min; Lag Time, TGA 10 min pre-incubation, 10 nM Ab (Relipidated TF): 13.8 min; Lag Time, TGA 10 min pre-incubation, 50 nM Ab (Relipidated TF): 26.5 min; Lag Time, TGA 10 min pre-incubation, 100 nM Ab (Relipidated TF): 29.5 min; Peak IIa, TGA […] min pre-incubation, 10 nM Ab (Relipidated TF): 44 nM; Peak IIa, TGA […] min pre-incubation, 50 nM Ab (Relipidated TF): 23 nM; Peak IIa, TGA […] min pre-incubation, 100 nM Ab (Relipidated TF): 20 nM; ttPeak, TGA 10 min pre-incubation, 10 nM Ab (Relipidated TF): 22.4 min; ttPeak, TGA 10 min pre-incubation, 50 nM Ab (Relipidated TF): 37.3 min; ttPeak, TGA 10 min pre-incubation, 100 nM Ab (Relipidated TF): 40.8 min
4 | B4 |  | 86 | 47 | 9 | 89 | 347 | 419 | 1740 | 8.2 | 25.6 | 155 | 31 | 25 | 14.9 | 35.3 | 41 | 8 | 31 | 
5 | B5 | 30 |  |  |  |  |  |  |  |  |  |  |  |  |  |  |  |  |  | % ETP, TGA 10 min pre-incubation, 10 nM Ab (Relipidated TF): 77%; % ETP, TGA 10 min pre-incubation, 50 nM Ab (Relipidated TF): 72%; % ETP, TGA 10 min pre-incubation, 100 nM Ab (Relipidated TF): 66%; % Peak IIa, TGA […] min pre-incubation, 10 nM Ab (Relipidated TF): 36%; % Peak IIa, TGA […] min pre-incubation, 100 nM Ab (Relipidated TF): 28%; % ttPeak, TGA 10 min pre-incubation, 10 nM Ab (Relipidated TF): 159%; % ttPeak, TGA 10 min pre-incubation, 50 nM Ab (Relipidated TF): 237%; % ttPeak, TGA 10 min pre-incubation, 100 nM Ab (Relipidated TF): 247%; ETP, TGA 10 min pre-incubation, 10 nM Ab (Relipidated TF): 1410 nM·min; ETP, TGA 10 min pre-incubation, 50 nM Ab (Relipidated TF): 1300 nM·min; ETP, TGA 10 min pre-incubation, 100 nM Ab (Relipidated TF): 1200 nM·min; Lag Time, TGA 10 min pre-incubation, 10 nM Ab (Relipidated TF): 9.4 min; Lag Time, TGA 10 min pre-incubation, 50 nM Ab (Relipidated TF): 14.1 min; Lag Time, TGA 10 min pre-incubation, 100 nM Ab (Relipidated TF): 14.7 min; Peak IIa, TGA […] min pre-incubation, 10 nM Ab (Relipidated TF): 98 nM; Peak IIa, TGA […] min pre-incubation, 50 nM Ab (Relipidated TF): 83 nM; Peak IIa, TGA […] min pre-incubation, 100 nM Ab (Relipidated TF): 76 nM; ttPeak, TGA 10 min pre-incubation, 10 nM Ab (Relipidated TF): 18.1 min; ttPeak, TGA 10 min pre-incubation, 50 nM Ab (Relipidated TF): 23.6 min; ttPeak, TGA 10 min pre-incubation, 100 nM Ab (Relipidated TF): 24.3 min
6 | B6 |  | 95 | 71 | 29 | 48 | 186 | 232 | 1930 | 7 | 14.1 | 235 | 95 | 81 | 11.7 | 22.6 | 26.2 | 24 | 17.1 | % ETP, Ab 50 nM [1]: 67%; % ETP, Ab 100 nM [1]: 62%; ETP [nM · min], Ab 50 nM [1]: 1360 nM·min; ETP [nM · min], Ab 100 nM [1]: 1260 nM·min
7 | B7 |  |  | 97 | 95 | 4 | 9 | 9 | 2110 | 5 | 5.2 | 322 | 317 | 317 | 8.2 | 8.6 | 8.6 | 95 | 5.2 | ETP [nM · min], Ab 50 nM [1]: 2120 nM·min; ETP [nM · min], Ab 100 nM [1]: 2130 nM·min
8 | B8 |  | 58 | 24 | 8 | 135 | 338 | 401 | 1180 | 10.4 | 25.1 | 79 | 28 | 27 | 18.6 | 34.6 | 39.6 | 8 | 29.9 | 
9 | B9 |  | 84 | 37 | 11 | 135 | 397 | 465 | 1690 | 10.8 | 29.8 | 122 | 36 | 29 | 18.6 | 39.3 | 44.6 | 9 | 34.7 | 

— patent US20240166765A1 (ICONIC THERAPEUTICS, published 2024)
